In patent publication US20110217237A1 (AbbVie / Abbott, published 2011):
Residue numbers refer to the chain shown, from its start.

B1: h1A11.A6 (antibody, V domains shown)
VH: EVQLVESGGGLVQPGGSLRLSCAASGFTFRHFPMAWVRQAPGKGLEWVATISSSDAWPSYRDSVKGRFTISRDNAKNSLYLQMNSLRAEDTAVYYCSRGYYNSPFAYWGQGTLVTVSS
VL: DIQMTQSPSSLSASVGDRVTITCRASEDIYSNLAWYQQKPGKAPKLLIYDTNNLADGVPSRFSGSGSGTDFTLTISSLQPEDFATYYCQQYNNYPPTFGQGTKLEIK
notes: also called h1A11.A6 VH / h1A11VL.1
B2: h1A11.A8 (antibody, V domains shown)
VH: B1 VH with R30G, H31N, A35S, T50S, A56S, P58A, S59T, Y60I, R61G
VL: B1 VL
notes: also called h1A11.A8 VH / h1A11VL.1
B3: h1A11.A11 (antibody, V domains shown)
VH: B1 VH with A56D, S59N, N77S
VL: B1 VL
notes: also called h1A11.A11 VH / h1A11VL.1
B4: h1A11.E12 (antibody, V domains shown)
VH: B1 VH with H31Y, S53G, A56E, S59N, S97A, Y107F
VL: B1 VL with E27Q, D28E, S31R, A43S, Y49F, N52S, N53V, F71S, N92T, N93Y
notes: also called h1A11.E12 VH / h1A11.E12 VL
B5: h1A11.G3 (antibody, V domains shown)
VH: B1 VH with H31Y, A35S, T50S, S53G, A56G, P58A, S97A
VL: B1 VL with E27Q, D28E, S31R, A43S, Y49F, N52S, N53V, F71S, N92T, N93Y
notes: also called h1A11.G3 VH / h1A11.E12 VL
B6: h1A11.A7 (antibody, V domains shown)
VH: B1 VH with R30S, H31N, A56G, W57T, P58T, S59Y, S97A
VL: B1 VL with E27Q, S31I, Y49F, N52S, N53D, N92D, N93Y
notes: also called h1A11VH.1 / h1A11.A7 VL
B7: h1A11.C6 (antibody, V domains shown)
VH: B1 VH with H31N, A56G, S59T, N77S
VL: B1 VL
notes: also called h1A11.C6 VH / h1A11VL.1
B8: h1A11.B4 (antibody, V domains shown)
VH: B1 VH with R30S, H31N, A56G, W57T, P58T, S59Y, S97A
VL: B1 VL with E27Q, S31Y, Y49F, N53I, Y87F, N92D, N93Y, Y94V
notes: also called h1A11VH.1 / h1A11.B4 VL
B9: h1A11.A12 (antibody, V domains shown)
VH: B1 VH with R30S, H31N, A56G, W57T, P58T, S59Y, S97A
VL: B1 VL with E27Q, S31Y, A43S, Y49F, N52S, N53S, Y87F, N92D, N93W
notes: also called h1A11VH.1 / h1A11.A12 VL
B10: h1A11.F5 (antibody, V domains shown)
VH: B1 VH with S97A
VL: B1 VL with E27Q, D28E, S31R, A43S, Y49F, N52S, N53V, F71S, N92T, N93Y
notes: also called h1A11.F5 VH / h1A11.E12 VL
B11: h1A11.A2 (antibody, V domains shown)
VH: B1 VH with R30S, H31N, A56G, W57T, P58T, S59Y, S97A
VL: B1 VL with E27Q, S31I, A43S, Y49F, N53D, N92D, N93Y, Y94V
notes: also called h1A11VH.1 / h1A11.A2 VL

These binders were tested against T1, human DLL4 extracellular domain (human, UniProt Q9NR61 27-529) (assay: SPR (Biacore)).
T1 construct: purified recombinant ECD; biotin-labelled or 6xHis-tagged depending on the assay; also called huDLL4 ECD; hu DLL4 ECD
T1 sequence (Q9NR61 27-529 limits assumed): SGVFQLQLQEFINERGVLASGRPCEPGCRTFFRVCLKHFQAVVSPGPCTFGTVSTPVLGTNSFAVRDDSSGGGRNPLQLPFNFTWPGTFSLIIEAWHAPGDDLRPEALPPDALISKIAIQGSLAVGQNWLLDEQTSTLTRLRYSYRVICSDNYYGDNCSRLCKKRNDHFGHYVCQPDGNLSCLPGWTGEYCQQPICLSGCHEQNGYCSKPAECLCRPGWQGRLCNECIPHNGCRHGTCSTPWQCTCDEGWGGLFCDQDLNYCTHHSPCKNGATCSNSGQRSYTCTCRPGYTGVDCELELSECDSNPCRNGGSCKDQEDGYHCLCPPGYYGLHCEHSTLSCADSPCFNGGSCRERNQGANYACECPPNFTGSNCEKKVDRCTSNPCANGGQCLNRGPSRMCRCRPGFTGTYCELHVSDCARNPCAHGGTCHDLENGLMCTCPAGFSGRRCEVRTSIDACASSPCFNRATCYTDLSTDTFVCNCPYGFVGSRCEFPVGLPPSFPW
Description: (§1) The BIACORE® surface plasmon resonance assay (Biacore, Inc., Piscataway, N.J., US) determines the affinity of antibodies with kinetic measurements of on-rate and off-rate constants. Binding of DLL4 antibodies to a purified recombinant DLL4 extracellular domain (ECD) was determined by surface plasmon resonance-based measurements with a Biacore® instrument (either a Biacore 2000, Biacore 3000, or Biacore T100; GE Healthcare, Piscataway, N.J., US) using running buffer HBS-EPB (10 mM HEPES [pH 7.4], 150 mM NaCl, 3 mM EDTA, 0.1 mg/ml BSA and 0.005% surfactant P20) at 25° C. For example, approximately 9000 RU of goat anti-human Fc specific polyclonal antibody (Thermo Fisher Scientific Inc., Rockford, Ill., US) diluted in 10 mM sodium acetate (pH 4.5) is directly immobilized across a CMS research grade biosensor chip using a standard amine coupling kit according to manufacturer's instructions and procedures at 25 μg/ml. Unreacted moieties on the biosensor surface were blocked with ethanolamine. For kinetic analysis, rate equations derived from the 1:1 Langmuir binding model were fitted simultaneously to multiple antigen injections (using global fit analysis) with the use of Scrubber 2 (BioLogic Software), Biacore Biaevaluation 4.0.1 software or Biacore T100 Evaluation software. Purified antibodies were diluted in running buffer for capture across goat anti-human Fc reaction surfaces. Antibodies to be captured as a ligand (1 μg/ml) were injected over reaction matrices at a flow rate of 10 μl/min. During the assay, all measurements were referenced against the capture surface alone (i.e., with no captured anti-DLL4 antibody). […] The equilibrium dissociation constant KD (M) of the reaction between antibodies and the target antigen was then calculated from the kinetic rate constants by the following formula: KD=Koff/Kₒₙ. Binding was recorded as a function of time and kinetic rate constants were calculated.

Kd [pM]	koff [s⁻¹]	kon [M⁻¹ s⁻¹]	Binder
36	6.62e-06	182000	B1
62	1.08e-05	174000	B2
150	2.66e-05	183000	B3
220	3.26e-05	149000	B4
87	9.39e-06	109000	B5
5700	0.000973	170000	B6
40	7.18e-06	178000	B7
5200	0.000823	157000	B8
7600	0.00132	173000	B9
75	9.82e-06	131000	B10
3000	0.000421	142000	B11

Each binder was assayed against T2, cynomolgus monkey DLL4 extracellular domain (cynomolgus monkey) (assay: SPR (Biacore)).
T2 construct: extracellular domain; also called cynoDLL4 ECD; Cyno DLL4
Description: as §1

Kd [pM]	koff [s⁻¹]	kon [M⁻¹ s⁻¹]	Binder
120	2.1e-05	171000	B1
150	2.4e-05	160000	B2
200	3.35e-05	170000	B3
280	3.84e-05	137000	B4
170	1.73e-05	99000	B5
7800	0.00124	158000	B6
180	3.12e-05	171000	B7
6900	0.00099	143000	B8
10000	0.00162	158000	B9
170	2e-05	118000	B10
3900	0.000527	134000	B11

What follows are binders tested against T3, mouse DLL4 extracellular domain (mouse, UniProt Q9JI71 27-532) (assay: SPR (Biacore)).
T3 construct: extracellular domain; also called muDLL4 ECD; murine DLL4
T3 sequence (Q9JI71 27-532): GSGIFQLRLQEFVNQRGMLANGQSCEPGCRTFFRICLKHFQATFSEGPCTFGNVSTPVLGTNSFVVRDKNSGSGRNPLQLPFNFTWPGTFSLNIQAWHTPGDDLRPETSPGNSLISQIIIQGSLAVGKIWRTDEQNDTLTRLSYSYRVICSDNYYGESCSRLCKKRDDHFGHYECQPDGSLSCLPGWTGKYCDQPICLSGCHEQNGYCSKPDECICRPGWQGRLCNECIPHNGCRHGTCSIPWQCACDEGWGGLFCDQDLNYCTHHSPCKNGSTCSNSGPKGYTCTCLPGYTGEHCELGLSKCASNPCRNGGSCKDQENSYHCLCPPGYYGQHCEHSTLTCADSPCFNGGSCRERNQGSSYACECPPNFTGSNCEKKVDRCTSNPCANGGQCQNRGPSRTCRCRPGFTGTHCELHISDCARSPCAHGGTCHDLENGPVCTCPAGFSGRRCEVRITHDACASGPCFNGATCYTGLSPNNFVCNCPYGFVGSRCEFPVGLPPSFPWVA
Description: as §1

Kd [pM]	koff [s⁻¹]	kon [M⁻¹ s⁻¹]	Binder
160	3.12e-05	198000	B1
180	3.27e-05	187000	B2
180	3.54e-05	198000	B3
350	5.44e-05	156000	B4
350	4.04e-05	117000	B5
120	2.34e-05	203000	B7
5200	0.0025	479000	B8
280	3.97e-05	143000	B10
5000	0.000904	181000	B11

What follows are binders tested against T4, rat DLL4 extracellular domain (rat, UniProt D3ZHH1 28-530) (assay: SPR (Biacore)).
T4 construct: extracellular domain; also called ratDLL4 ECD
T4 sequence (D3ZHH1 28-530): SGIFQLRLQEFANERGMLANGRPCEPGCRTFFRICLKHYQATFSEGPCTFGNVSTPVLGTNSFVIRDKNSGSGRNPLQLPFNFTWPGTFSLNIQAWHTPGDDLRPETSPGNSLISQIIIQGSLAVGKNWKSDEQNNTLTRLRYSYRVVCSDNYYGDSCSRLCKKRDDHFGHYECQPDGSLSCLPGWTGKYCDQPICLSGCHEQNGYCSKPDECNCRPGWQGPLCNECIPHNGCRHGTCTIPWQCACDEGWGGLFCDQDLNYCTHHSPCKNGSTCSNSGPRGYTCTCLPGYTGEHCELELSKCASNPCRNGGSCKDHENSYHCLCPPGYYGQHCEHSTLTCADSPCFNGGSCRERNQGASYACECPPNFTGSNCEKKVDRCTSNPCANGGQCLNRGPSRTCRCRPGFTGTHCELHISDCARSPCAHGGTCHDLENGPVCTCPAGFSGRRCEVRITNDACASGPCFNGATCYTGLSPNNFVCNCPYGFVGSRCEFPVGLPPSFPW
Description: as §1

Kd [pM]	koff [s⁻¹]	kon [M⁻¹ s⁻¹]	binding result	Binder
6000	0.000772	129000	–	B1
47000	0.0065	139000	–	B2
8800	0.00102	116000	–	B3
1600	0.000175	108000	–	B4
8600	0.00101	118000	–	B5
–	–	–	no binding	B6
18000	0.00305	169000	–	B7
–	–	–	no binding	B8
–	–	–	no binding	B9
5800	0.000679	116000	–	B10
–	–	–	no binding	B11

These binders were tested against T5, human DLL4, full length, on cells (human, UniProt Q9NR61 27-685) (assay: cell-based or functional assay).
T5 sequence (Q9NR61 27-685 limits assumed): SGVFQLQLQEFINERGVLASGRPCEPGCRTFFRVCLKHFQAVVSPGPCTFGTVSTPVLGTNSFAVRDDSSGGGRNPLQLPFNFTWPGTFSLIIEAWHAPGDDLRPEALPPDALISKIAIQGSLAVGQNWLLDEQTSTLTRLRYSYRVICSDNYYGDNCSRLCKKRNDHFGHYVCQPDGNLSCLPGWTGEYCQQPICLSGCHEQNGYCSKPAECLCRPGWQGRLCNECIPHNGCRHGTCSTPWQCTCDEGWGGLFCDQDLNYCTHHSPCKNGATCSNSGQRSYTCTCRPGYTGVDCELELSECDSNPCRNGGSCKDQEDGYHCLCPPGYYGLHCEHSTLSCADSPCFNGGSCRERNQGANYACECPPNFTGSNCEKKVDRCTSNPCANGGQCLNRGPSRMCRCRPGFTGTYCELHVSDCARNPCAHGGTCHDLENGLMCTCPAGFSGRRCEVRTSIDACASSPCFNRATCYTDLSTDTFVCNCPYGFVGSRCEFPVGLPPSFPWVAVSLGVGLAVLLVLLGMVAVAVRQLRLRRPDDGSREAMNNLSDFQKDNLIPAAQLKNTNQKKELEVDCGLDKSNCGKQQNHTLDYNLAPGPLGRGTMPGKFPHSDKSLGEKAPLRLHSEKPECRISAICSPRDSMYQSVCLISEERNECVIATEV

Inhibition of Notch Activation via DLL4 cells, Notch reporter assay [nM]	Binder
0.746	B1
1.33	B2
0.904	B3
0.208	B4
1.84	B5
2.92	B6
0.894	B7
3.28	B8
1.66	B9
0.484	B10
3.68	B11

The binders below were run against T6, mouse DLL4 on cells (mouse, UniProt Q9JI71 27-686) (assay: cell-based or functional assay).
T6 sequence (Q9JI71 27-686): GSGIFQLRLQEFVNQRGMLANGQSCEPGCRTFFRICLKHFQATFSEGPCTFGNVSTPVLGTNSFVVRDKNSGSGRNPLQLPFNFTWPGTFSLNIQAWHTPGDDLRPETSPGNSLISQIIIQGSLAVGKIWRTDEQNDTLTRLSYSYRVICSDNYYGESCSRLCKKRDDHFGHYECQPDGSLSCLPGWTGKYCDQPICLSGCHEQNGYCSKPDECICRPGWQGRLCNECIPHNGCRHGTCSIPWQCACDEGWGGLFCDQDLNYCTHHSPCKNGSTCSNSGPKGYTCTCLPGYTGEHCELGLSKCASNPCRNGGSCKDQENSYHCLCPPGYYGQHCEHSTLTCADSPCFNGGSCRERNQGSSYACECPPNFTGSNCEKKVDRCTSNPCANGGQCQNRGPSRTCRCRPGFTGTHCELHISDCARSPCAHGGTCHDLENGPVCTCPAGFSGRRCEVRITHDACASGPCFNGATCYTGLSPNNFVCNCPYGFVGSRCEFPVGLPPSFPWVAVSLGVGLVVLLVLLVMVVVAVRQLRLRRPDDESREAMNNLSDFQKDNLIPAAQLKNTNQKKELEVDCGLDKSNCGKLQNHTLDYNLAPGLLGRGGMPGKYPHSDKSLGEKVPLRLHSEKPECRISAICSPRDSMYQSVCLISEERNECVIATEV

Inhibition of Notch Activation via DLL4 cells, Notch reporter assay [nM]	Binder
1.17	B1
1.25	B2
1.18	B3
0.266	B4
2.35	B5
1.79	B6
1.19	B7
1.08	B8
0.832	B9
0.649	B10
0.854	B11

These binders were tested against T5, human DLL4, full length, on cells (assay: FACS, direct binding to DLL4 cells).
Description: (§2) Stable cell lines overexpressing cell-surface DLL4 were harvested from tissue culture flasks, washed four times and resuspended in phosphate buffered saline (PBS) containing 1% bovine serum albumin and 1 mM CaCl₂ (FACS buffer). 1.5×10⁵ cells were incubated with antibodies at various concentrations in FACS buffer for 60 minutes on ice. […] Following an incubation on ice (4° C., 60 minutes), cells were washed three times and resuspended in FACS buffer. Fluorescence was measured using a Becton Dickinson FACSCalibur-HTS (Becton Dickinson, San Jose, Calif., US). Data were analyzed using Graphpad Prism software and EC₅₀ values were reported as the concentration of antibody to achieve 50% of maximal DLL4 antibodies binding to DLL4 expressing cells.
(§3) The hu1A11.1 affinity matured clones (Table 22) were expressed, purified, and further characterized in vitro. Their activities of binding to cell-bound DLL4 and inhibiting cell-bound DLL4-induced Notch activation were further examined using methods described in Examples 1.3 and 1.6, and are summarized in Table 26 (below).

EC50 [pM]	Binder
2230	B1
3160	B2
2480	B3
996	B4
3590	B5
2170	B6
2450	B7
2140	B8
1770	B9
1170	B10
2380	B11

What follows are binders tested against T6, mouse DLL4 on cells (assay: FACS, direct binding to DLL4 cells).
Description: as §2, §3

EC50 [pM]	Binder
636	B1
744	B2
500	B3
1620	B4
1400	B5
625	B6
517	B7
665	B8
568	B9
460	B10
634	B11
